# Reference: patent CN117999282A (GAMMADELTA THERAPEUTICS LTD, dated 2024)
# T1: recombinant human OX40 (human, UniProt P43489 29-216)
# T1 construct: also called 重组OX40; 人OX40
# T1 sequence (looked up): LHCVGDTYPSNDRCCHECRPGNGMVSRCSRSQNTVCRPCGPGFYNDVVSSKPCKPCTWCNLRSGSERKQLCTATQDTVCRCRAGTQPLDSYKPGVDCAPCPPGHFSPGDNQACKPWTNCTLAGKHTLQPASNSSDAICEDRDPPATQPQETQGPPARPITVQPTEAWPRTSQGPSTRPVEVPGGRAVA
# What was measured:
# recombinant human PD-1 = target: T2, recombinant human PD-1 (human, UniProt Q15116 25-167); test: SPR, PD-1 fixed on carboxymethyl dextran chip, bispecific 100nM, then Vδ1 heterodimer 100nM
# T2 construct: also called 重组PD-1; 人PD-1
# T2 sequence (Q15116 25-167 limits assumed): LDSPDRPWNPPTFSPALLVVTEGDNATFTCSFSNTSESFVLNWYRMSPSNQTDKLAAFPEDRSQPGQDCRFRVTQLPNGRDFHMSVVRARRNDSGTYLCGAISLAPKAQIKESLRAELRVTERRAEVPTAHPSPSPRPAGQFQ
# [1] = target: human Vδ1 γδ T cell receptor on cells (skin-, blood- or tumour-derived Vδ1 γδ T cells) (human); test: cell-based or functional assay
# human Vδ1 γδ T cell receptor on cells (skin-, blood- or tumour-derived Vδ1 γδ T cells) (human), sequence (A0A1B0GX56 22-115, stated change not applied): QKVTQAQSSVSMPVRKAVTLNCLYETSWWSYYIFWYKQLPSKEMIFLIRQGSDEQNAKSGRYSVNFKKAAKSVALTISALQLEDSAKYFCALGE
# recombinant human OX40 = target: T1, recombinant human OX40; test: SPR, OX40 fixed on carboxymethyl dextran chip, bispecific 100nM, then Vδ1 heterodimer 100nM
binder,measurement,setting,value
"抗Vδ1×PD-1双特异性抗体 (ADT1-4-2×帕博利珠单抗) (bispecific antibody, human IgG1, kappa, also called 抗Vδ1×抗PD-1) chain 1: EIVLTQSPATLSLSPGERATLSCRASKGVSTSGYSYLHWYQQKPGQAPRLLIYLASYLESGVPARFSGSGSGTDFTLTISSLEPEDFAVYYCQHSRDLPLTFGGGTKVEIKRTVAAPSVFIFPPSDEQLKSGTASVVCLLNNFYPREAKVQWKVDNALQSGNSQESVTEQDSKDSTYSLSSTLTLSKADYEKHKVYACEVTHQGLSSPVTKSFNRGEC chain 2: not shown",binding result,recombinant human PD-1,binds
"ADT1-4 (parent antibody) (antibody, IgG1, V domains shown) VH: QVQLQQSGPGLVKPSQTLSLTCAISGDSVSSKSAAWNWIRQSPSRGLEWLGRTYYRSKWSTDYAASVKSRITINPDTSKNQLSLQLNSVTPEDTAVYYCARTWSGYVDVWGQGTLVTVSS VL: DIQMTQSPPALSASVGDRVTITCRASQDINDWLAWYQHKPGKAPKLLIYDASSLESGVPSRFSGSGSGTEFTLTISSLQPDDFATYYCQQSYSTPQVTFGQGTRLEIK",TCR下调 IC50 (soluble assay),[1],38.3 nM
"抗Vδ1×OX40双特异性抗体 (ADT1-4-2×珀伽利珠单抗) (bispecific antibody, human IgG1, kappa, also called 抗Vδ1×抗OX40) chain 1: DIQMTQSPPALSASVGDRVTITCRASQDINDWLAWYQHKPGKAPKLLIYDASSLESGVPLRFSGSGSGTEFTLTISSLQPDDFATYYCQQKYSAPQVTFGQGTRLEIKRTVAAPSVFIFPPSDEQLKSGTASVVCLLNNFYPREAKVQWKVDNALQSGNSQESVTEQDSKDSTYSLSSTLTLSKADYEKHKVYACEVTHQGLSSPVTKSFNRGEC chain 2: not shown",binding result,recombinant human OX40,binds
